Assay results published in patent US6890516.

Target: Drosophila nitric oxide synthase (DNOS) (Drosophila) (UniProt Q27571)
Assay: cell-based or functional assay

Chain of Drosophila nitric oxide synthase (DNOS) (Drosophila) (Q27571 other isoform, or with tags, fused parts or gaps limits assumed): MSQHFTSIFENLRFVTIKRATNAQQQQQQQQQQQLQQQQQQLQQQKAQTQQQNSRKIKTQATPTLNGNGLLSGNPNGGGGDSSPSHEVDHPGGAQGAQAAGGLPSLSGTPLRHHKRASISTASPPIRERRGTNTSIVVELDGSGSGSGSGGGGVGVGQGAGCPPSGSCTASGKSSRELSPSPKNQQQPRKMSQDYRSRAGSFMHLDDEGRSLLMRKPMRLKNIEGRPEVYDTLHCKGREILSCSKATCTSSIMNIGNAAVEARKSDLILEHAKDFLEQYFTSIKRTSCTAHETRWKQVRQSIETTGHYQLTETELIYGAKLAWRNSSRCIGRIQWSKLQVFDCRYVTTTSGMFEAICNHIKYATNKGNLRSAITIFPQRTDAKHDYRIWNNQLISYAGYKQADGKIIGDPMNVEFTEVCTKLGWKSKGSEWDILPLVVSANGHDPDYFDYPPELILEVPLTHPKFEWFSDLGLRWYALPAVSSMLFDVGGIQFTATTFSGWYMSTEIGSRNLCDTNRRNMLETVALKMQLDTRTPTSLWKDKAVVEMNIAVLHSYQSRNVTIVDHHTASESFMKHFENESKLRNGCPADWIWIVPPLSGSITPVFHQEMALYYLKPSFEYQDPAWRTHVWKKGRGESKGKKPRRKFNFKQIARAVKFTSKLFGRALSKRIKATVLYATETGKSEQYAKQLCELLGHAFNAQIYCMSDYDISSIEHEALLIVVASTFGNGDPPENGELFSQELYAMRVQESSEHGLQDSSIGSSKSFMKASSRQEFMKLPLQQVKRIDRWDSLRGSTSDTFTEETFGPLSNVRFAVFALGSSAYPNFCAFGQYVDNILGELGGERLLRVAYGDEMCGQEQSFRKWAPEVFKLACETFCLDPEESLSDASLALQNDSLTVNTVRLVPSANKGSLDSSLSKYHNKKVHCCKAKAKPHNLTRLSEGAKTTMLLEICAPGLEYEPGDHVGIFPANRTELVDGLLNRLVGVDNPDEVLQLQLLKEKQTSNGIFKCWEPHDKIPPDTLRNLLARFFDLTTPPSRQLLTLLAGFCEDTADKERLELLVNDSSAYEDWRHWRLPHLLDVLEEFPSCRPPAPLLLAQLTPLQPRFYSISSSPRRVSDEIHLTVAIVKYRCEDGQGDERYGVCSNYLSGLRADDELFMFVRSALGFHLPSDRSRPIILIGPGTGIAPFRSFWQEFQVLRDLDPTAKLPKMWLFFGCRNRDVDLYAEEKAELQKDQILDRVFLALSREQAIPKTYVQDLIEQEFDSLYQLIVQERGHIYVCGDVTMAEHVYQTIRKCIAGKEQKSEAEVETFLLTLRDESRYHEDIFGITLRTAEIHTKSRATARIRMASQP

Substance: calmodulin
- NO synthase activity (L-arginine to L-citrulline conversion, 293 cell extracts, with exogenous Ca2+ and calmodulin): 0.128 pmol/mg/min
- NO synthase activity with 500 µM W5, a calmodulin antagonist: 0.0222 pmol/mg/min
- NO synthase activity with 500 µM W5, a calmodulin antagonist (% of activity): 18
- NO synthase activity with 1 mM EGTA, without exogenous Ca2+ or calmodulin: 90 % reduction
